Our source for the IC50, Kd and EC50 values is patent US20190202920A1 (F STAR BETA, published 2019).

Test [1] addresses T1, cell surface EGFR on human cancer cell lines (A431NS, MDA-MB-468, U87MG) (human, UniProt P00533 25-1210).
T1 construct: whole, on cells; The cell line of each entry is named under assay; also called EGFR on A431NS cells; EGFR on MDA-MB-468 cells
The test can be described thus: flow cytometry, blocking of biotinylated EGF binding to MDA-MB-468 cells. Background: A flow cytometer gives signals particle by particle.

In test [2] the target is T2, His-tagged human EGFR (Sino Biological) (human, UniProt P00533 25-645).
T2 construct: also called His-tagged EGFR
The test can be described thus: SPR (BIAcore T200), mAb^2 captured on anti-human Fab chip, His-tagged human EGFR as analyte, 1:1 fit. For orientation: Surface plasmon resonance follows binding to a sensor surface in real time, without labels.

Test [3] addresses T3, cell surface EGFR on HCC827 cells (E746-A750 deletion) (UniProt P00533 25-1210).
T3 construct: whole, on cells; Residues E746-A750 are deleted; a deletion cannot be written as a substitution
As to the kind of experiment: flow cytometry on HCC827 cells.

Test [4] addresses T4, cell surface EGFR on NCI-H1975 cells (mutated EGFR L858R and T790M) (UniProt P00533 25-1210, limits assumed).
T4 construct: whole, on cells
The test can be described thus: flow cytometry on NCI-H1975 cells.

Broadly, the IC50 is the concentration at which inhibition is half-maximal. Low readings indicate inhibition by little substance, high ones a need for much substance. One may read the Kd as the constant that tells how readily two partners part at equilibrium. The EC50 is the concentration giving half of the maximal effect. The low end stands for higher potency in that assay, the high end for lower potency in that assay.

Numbering of substitutions follows the chain as printed.

B1: mAb^2 FI/FS1-60 (bispecific antibody, human IgG1, kappa)
heavy: QVQLVQPGAEVKKPGTSVKLSCKASGYTFTTYWMHWVRQAPGQGLEWIGEINPTNGHTNYNQKFQGRATLTVDKSTSTAYMELSSLRSEDTAVYYCARNYVGSIFDYWGQGTLLTVSSASTKGPSVFPLAPSSKSTSGGTAALGCLVKDYFPEPVTVSWNSGALTSGVHTFPAVLQSSGLYSLSSVVTVPSSSLGTQTYICNVNHKPSNTKVDKRVEPKSCDKTHTCPPCPAPELLGGPSVFLFPPKPKDTLMISRTPEVTCVVVDVSHEDPEVKFNWYVDGVEVHNAKTKPREEQYNSTYRVVSVLTVLHQDWLNGKEYKCKVSNKALPAPIEKTISKAKGQPREPQVYTLPPSRDELDEGGPVSLTCLVKGFYPSDIAVEWESTYGPENNYKTTPPVLDSDGSFFLYSRLTVSHWRWYSGNVFSCSVMHEALHNHYTQKSLSLSPG
light: DIVMTQSPDSLAMSLGERVTLNCKASENVVSYVSWYQQKPGQSPKLLIYGASNRESGVPDRFSGSGSATDFTLTISSVQAEDVADYHCGQSYNYPYTFGQGTKLEIKRTVAAPSVFIFPPSDEQLKSGTASVVCLLNNFYPREAKVQWKVDNALQSGNSQESVTEQDSKDSTYSLSSTLTLSKADYEKHKVYACEVTHQGLSSPVTKSFNRGEC
The molecule B1 returned an IC50 in test [1] of 0.71 nM. Binding in test [2] was characterised by a dissociation constant (Kd) of 3.5 nM.

B2: mAb^2 RI/FS1-60 (bispecific antibody, human IgG2, kappa)
heavy: QVQLQESGPGLVKPSETLSLTCTVSGGSISIYYWSWIRQPPGKGLEWIGYVYYSGSTNYNPSLKSRVTISVDTSKNQFSLKLNSVTAADTAVYYCARGGYDFWSGYFDYWGQGTLVTVSSASTKGPSVFPLAPCSRSTSESTAALGCLVKDYFPEPVTVSWNSGALTSGVHTFPAVLQSSGLYSLSSVVTVPSSNFGTQTYTCNVDHKPSNTKVDKTVERKCCVECPPCPAPPVAGPSVFLFPPKPKDTLMISRTPEVTCVVVDVSHEDPEVQFNWYVDGVEVHNAKTKPREEQFNSTFRVVSVLTVVHQDWLNGKEYKCKVSNKGLPAPIEKTISKTKGQPREPQVYTLPPSRDELDEGGPVSLTCLVKGFYPSDIAVEWESTYGPENNYKTTPPVLDSDGSFFLYSRLTVSHWRWYSGNVFSCSVMHEALHNHYTQKSLSLSPG
light: not shown
As for B2, the IC50 in test [1] is 0.45 nM. Also, in test [2], the equilibrium dissociation constant (Kd) turned out to be 3.6 nM.

B3: mAb^2 RI/FS1-65 (bispecific antibody, human IgG2, kappa)
heavy: B2 heavy with R409K, H414Y, Y418V, S419K
light: not shown
As for B3, the EC50 was 3.56 nM in test [3] and 2.16 nM in test [4]. The equilibrium dissociation constant (Kd) in test [2] amounted to 1.8 nM.
